According to patent US20210115124A1 (Genentech, published 2021):

T1: human VEGF (hVEGF) (human, UniProt P15692 181-395)
T1 construct: also called VEGF-A
T1 sequence: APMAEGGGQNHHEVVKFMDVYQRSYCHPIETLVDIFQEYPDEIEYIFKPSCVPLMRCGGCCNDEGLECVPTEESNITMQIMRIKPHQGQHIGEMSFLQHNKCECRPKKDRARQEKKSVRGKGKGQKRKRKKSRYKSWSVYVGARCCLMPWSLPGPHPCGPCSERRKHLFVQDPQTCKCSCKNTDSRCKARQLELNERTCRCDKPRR


The binders below were run against T1, human VEGF (hVEGF) (assay: SPR single-cycle;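 also: fab variants injected over hVEGF immobilized on a CM5 chip (Biacore T200), threefold dilution series from 0.02 to 50 nM, kinetics fitted with a 1:1 Langmuir model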).
Excerpt: To determine the binding affinity of selected Fab variants, SPR measurement with a BIACORE® T200 instrument was used. Briefly, series S sensor chip CM5 was activated with 1-ethyl-3-(3-dimethylaminopropyl) carbodiimide (EDC) and N-hydroxysuccinimide (NHS) reagents according to the supplier's instructions, and human VEGF (hVEGF) was coupled to achieve 50-80 response units (RU), then following by blocking un-reacted groups with 1M ethanolamine.
Three-fold serial dilutions of Fab in HBS-P buffer (0.01 M HEPES pH 7.4, 0.15 M NaCl, 0.005% surfactant P20) from low (0.02 nM) to high (50 nM) were injected (flow rate: 30 μl/min). The binding responses on hVEGF were corrected by subtracting of RU from a blank flow cell. The sensorgram was recorded and subject to reference and buffer subtraction before evaluating by BIACORE® T200 Evaluation Software (version 2.0). Association rates (kₒₙ) and dissociation rates (koff) were calculated using a simple one-to-one Langmuir binding model. The equilibrium dissociation constant (Kd) was calculated as the ratio koff/kₒₙ.

Binder	Fold change (relative to G6.31) [fold]	Kd [nM]	koff [s⁻¹]	kon [M⁻¹ s⁻¹]
G6.31 HC-A60E (Fab, name in Kabat numbering, V domains shown, Fab) VH: EVQLVESGGGLVQPGGSLRLSCAASGFTISDYWIHWVRQAPGKGLEWVAGITPAGGYTYYEDSVKGRFTISADTSKNTAYLQMNSLRAEDTAVYYCARFVFFLPYAMDYWGQGTLVTVSS VL: DIQMTQSPSSLSASVGDRVTITCRASQDVSTAVAWYQQKPGKAPKLLIYSASFLYSGVPSRFSGSGSGTDFTLTISSLQPEDFATYYCQQGYGNPFTFGQGTKVEIK	1.6	1.08	0.000565	524000
G6.31 HC-A71E (Fab, name in Kabat numbering, V domains shown, Fab) VH: EVQLVESGGGLVQPGGSLRLSCAASGFTISDYWIHWVRQAPGKGLEWVAGITPAGGYTYYADSVKGRFTISEDTSKNTAYLQMNSLRAEDTAVYYCARFVFFLPYAMDYWGQGTLVTVSS VL: DIQMTQSPSSLSASVGDRVTITCRASQDVSTAVAWYQQKPGKAPKLLIYSASFLYSGVPSRFSGSGSGTDFTLTISSLQPEDFATYYCQQGYGNPFTFGQGTKVEIK	1.1	1.48	0.000379	257000
G6.31 HC-T28K (Fab, name in Kabat numbering, V domains shown, Fab) VH: EVQLVESGGGLVQPGGSLRLSCAASGFKISDYWIHWVRQAPGKGLEWVAGITPAGGYTYYADSVKGRFTISADTSKNTAYLQMNSLRAEDTAVYYCARFVFFLPYAMDYWGQGTLVTVSS VL: DIQMTQSPSSLSASVGDRVTITCRASQDVSTAVAWYQQKPGKAPKLLIYSASFLYSGVPSRFSGSGSGTDFTLTISSLQPEDFATYYCQQGYGNPFTFGQGTKVEIK	4	0.42	0.00041	975000
G6.31 HC-Q81E (Fab, name in Kabat numbering, V domains shown, Fab) VH: EVQLVESGGGLVQPGGSLRLSCAASGFTISDYWIHWVRQAPGKGLEWVAGITPAGGYTYYADSVKGRFTISADTSKNTAYLEMNSLRAEDTAVYYCARFVFFLPYAMDYWGQGTLVTVSS VL: DIQMTQSPSSLSASVGDRVTITCRASQDVSTAVAWYQQKPGKAPKLLIYSASFLYSGVPSRFSGSGSGTDFTLTISSLQPEDFATYYCQQGYGNPFTFGQGTKVEIK	0.8	2.2	0.000495	225000
G6.31 HC-T68K (Fab, name in Kabat numbering, V domains shown, Fab) VH: EVQLVESGGGLVQPGGSLRLSCAASGFTISDYWIHWVRQAPGKGLEWVAGITPAGGYTYYADSVKGRFKISADTSKNTAYLQMNSLRAEDTAVYYCARFVFFLPYAMDYWGQGTLVTVSS VL: DIQMTQSPSSLSASVGDRVTITCRASQDVSTAVAWYQQKPGKAPKLLIYSASFLYSGVPSRFSGSGSGTDFTLTISSLQPEDFATYYCQQGYGNPFTFGQGTKVEIK	1.3	1.29	0.000513	397000
G6.31 HC-P41R (Fab, name in Kabat numbering, V domains shown, Fab) VH: EVQLVESGGGLVQPGGSLRLSCAASGFTISDYWIHWVRQARGKGLEWVAGITPAGGYTYYADSVKGRFTISADTSKNTAYLQMNSLRAEDTAVYYCARFVFFLPYAMDYWGQGTLVTVSS VL: DIQMTQSPSSLSASVGDRVTITCRASQDVSTAVAWYQQKPGKAPKLLIYSASFLYSGVPSRFSGSGSGTDFTLTISSLQPEDFATYYCQQGYGNPFTFGQGTKVEIK	1.8	0.97	0.000554	571000
G6.31 HC-G65E (Fab, name in Kabat numbering, V domains shown, Fab) VH: EVQLVESGGGLVQPGGSLRLSCAASGFTISDYWIHWVRQAPGKGLEWVAGITPAGGYTYYADSVKERFTISADTSKNTAYLQMNSLRAEDTAVYYCARFVFFLPYAMDYWGQGTLVTVSS VL: DIQMTQSPSSLSASVGDRVTITCRASQDVSTAVAWYQQKPGKAPKLLIYSASFLYSGVPSRFSGSGSGTDFTLTISSLQPEDFATYYCQQGYGNPFTFGQGTKVEIK	1.1	1.56	0.000472	302000
G6.31 HC-K75E (Fab, name in Kabat numbering, V domains shown, Fab) VH: EVQLVESGGGLVQPGGSLRLSCAASGFTISDYWIHWVRQAPGKGLEWVAGITPAGGYTYYADSVKGRFTISADTSENTAYLQMNSLRAEDTAVYYCARFVFFLPYAMDYWGQGTLVTVSS VL: DIQMTQSPSSLSASVGDRVTITCRASQDVSTAVAWYQQKPGKAPKLLIYSASFLYSGVPSRFSGSGSGTDFTLTISSLQPEDFATYYCQQGYGNPFTFGQGTKVEIK	0.8	2.04	0.000444	217000
G6.31 HC-P41E (Fab, name in Kabat numbering, V domains shown, Fab) VH: EVQLVESGGGLVQPGGSLRLSCAASGFTISDYWIHWVRQAEGKGLEWVAGITPAGGYTYYADSVKGRFTISADTSKNTAYLQMNSLRAEDTAVYYCARFVFFLPYAMDYWGQGTLVTVSS VL: DIQMTQSPSSLSASVGDRVTITCRASQDVSTAVAWYQQKPGKAPKLLIYSASFLYSGVPSRFSGSGSGTDFTLTISSLQPEDFATYYCQQGYGNPFTFGQGTKVEIK	0.5	3.6	0.000548	152000
G6.31 HC-T28E (Fab, name in Kabat numbering, V domains shown, Fab) VH: EVQLVESGGGLVQPGGSLRLSCAASGFEISDYWIHWVRQAPGKGLEWVAGITPAGGYTYYADSVKGRFTISADTSKNTAYLQMNSLRAEDTAVYYCARFVFFLPYAMDYWGQGTLVTVSS VL: DIQMTQSPSSLSASVGDRVTITCRASQDVSTAVAWYQQKPGKAPKLLIYSASFLYSGVPSRFSGSGSGTDFTLTISSLQPEDFATYYCQQGYGNPFTFGQGTKVEIK	3	0.566	0.000352	621000
G6.31 HC-K64E (Fab, name in Kabat numbering, V domains shown, Fab) VH: EVQLVESGGGLVQPGGSLRLSCAASGFTISDYWIHWVRQAPGKGLEWVAGITPAGGYTYYADSVEGRFTISADTSKNTAYLQMNSLRAEDTAVYYCARFVFFLPYAMDYWGQGTLVTVSS VL: DIQMTQSPSSLSASVGDRVTITCRASQDVSTAVAWYQQKPGKAPKLLIYSASFLYSGVPSRFSGSGSGTDFTLTISSLQPEDFATYYCQQGYGNPFTFGQGTKVEIK	2.4	0.715	0.000395	552000
G6.31 HC-T73E (Fab, name in Kabat numbering, V domains shown, Fab) VH: EVQLVESGGGLVQPGGSLRLSCAASGFTISDYWIHWVRQAPGKGLEWVAGITPAGGYTYYADSVKGRFTISADESKNTAYLQMNSLRAEDTAVYYCARFVFFLPYAMDYWGQGTLVTVSS VL: DIQMTQSPSSLSASVGDRVTITCRASQDVSTAVAWYQQKPGKAPKLLIYSASFLYSGVPSRFSGSGSGTDFTLTISSLQPEDFATYYCQQGYGNPFTFGQGTKVEIK	2.2	0.788	0.000434	550000
G6.31 HC-N76E (Fab, name in Kabat numbering, V domains shown, Fab) VH: EVQLVESGGGLVQPGGSLRLSCAASGFTISDYWIHWVRQAPGKGLEWVAGITPAGGYTYYADSVKGRFTISADTSKETAYLQMNSLRAEDTAVYYCARFVFFLPYAMDYWGQGTLVTVSS VL: DIQMTQSPSSLSASVGDRVTITCRASQDVSTAVAWYQQKPGKAPKLLIYSASFLYSGVPSRFSGSGSGTDFTLTISSLQPEDFATYYCQQGYGNPFTFGQGTKVEIK	1	1.72	0.000467	271000
G6.31 HC-S82bE (Fab, name in Kabat numbering, V domains shown, Fab) VH: EVQLVESGGGLVQPGGSLRLSCAASGFTISDYWIHWVRQAPGKGLEWVAGITPAGGYTYYADSVKGRFTISADTSKNTAYLQMNELRAEDTAVYYCARFVFFLPYAMDYWGQGTLVTVSS VL: DIQMTQSPSSLSASVGDRVTITCRASQDVSTAVAWYQQKPGKAPKLLIYSASFLYSGVPSRFSGSGSGTDFTLTISSLQPEDFATYYCQQGYGNPFTFGQGTKVEIK	1.7	0.991	0.000433	437000
G6.31 HC-T68E (Fab, name in Kabat numbering, V domains shown, Fab) VH: EVQLVESGGGLVQPGGSLRLSCAASGFTISDYWIHWVRQAPGKGLEWVAGITPAGGYTYYADSVKGRFEISADTSKNTAYLQMNSLRAEDTAVYYCARFVFFLPYAMDYWGQGTLVTVSS VL: DIQMTQSPSSLSASVGDRVTITCRASQDVSTAVAWYQQKPGKAPKLLIYSASFLYSGVPSRFSGSGSGTDFTLTISSLQPEDFATYYCQQGYGNPFTFGQGTKVEIK	0.8	2.05	0.00044	215000
G6.31 HC-K43E (Fab, name in Kabat numbering, V domains shown, Fab) VH: EVQLVESGGGLVQPGGSLRLSCAASGFTISDYWIHWVRQAPGEGLEWVAGITPAGGYTYYADSVKGRFTISADTSKNTAYLQMNSLRAEDTAVYYCARFVFFLPYAMDYWGQGTLVTVSS VL: DIQMTQSPSSLSASVGDRVTITCRASQDVSTAVAWYQQKPGKAPKLLIYSASFLYSGVPSRFSGSGSGTDFTLTISSLQPEDFATYYCQQGYGNPFTFGQGTKVEIK	1.3	1.27	0.000482	380000
G6.31 HC-S30E (Fab, name in Kabat numbering, V domains shown, Fab) VH: EVQLVESGGGLVQPGGSLRLSCAASGFTIEDYWIHWVRQAPGKGLEWVAGITPAGGYTYYADSVKGRFTISADTSKNTAYLQMNSLRAEDTAVYYCARFVFFLPYAMDYWGQGTLVTVSS VL: DIQMTQSPSSLSASVGDRVTITCRASQDVSTAVAWYQQKPGKAPKLLIYSASFLYSGVPSRFSGSGSGTDFTLTISSLQPEDFATYYCQQGYGNPFTFGQGTKVEIK	0.2	7.1	0.000558	78500
G6.31 HC-S74E (Fab, name in Kabat numbering, V domains shown, Fab) VH: EVQLVESGGGLVQPGGSLRLSCAASGFTISDYWIHWVRQAPGKGLEWVAGITPAGGYTYYADSVKGRFTISADTEKNTAYLQMNSLRAEDTAVYYCARFVFFLPYAMDYWGQGTLVTVSS VL: DIQMTQSPSSLSASVGDRVTITCRASQDVSTAVAWYQQKPGKAPKLLIYSASFLYSGVPSRFSGSGSGTDFTLTISSLQPEDFATYYCQQGYGNPFTFGQGTKVEIK	0.8	2.11	0.000499	236000
